Assay results: patent US20230045284A1

Biological target: Total cellular Ras (all isoforms KRas, HRas and NRas, endogenous, in human cell lines)
Assay: cell-based or functional assay

RRSP-DTB (RRSP fused via a (G4S)2 linker to diphtheria toxin residues 186-535, DTT-DTR) (from UniProt P00588 186-535) (enzyme)
IC50 of cell viability after 72 hours, HCT-116 cells: 1.5 pM | IC50 of cell viability at 72 h, MDA-MB-436 cells: 5 pM | IC50 of cell viability, MDA-MB-231 cells, 72 hours: 12 pM | IC50 of viability of HCT-116 spheroids after 7 days: 85 pM | concentration giving complete cleavage of RAS after 1 h, western blot, MDA-MB-436 cells: 10 nM

RRSP-CPD-DTa-DTB (RRSP fused to the MARTX cysteine protease domain and detoxified diphtheria toxin) (from UniProt P00588 33-567) (enzyme)
concentration giving partial RAS inactivation, western blot, HCT-116 cells: 100 pM

RRSP*-DTB (catalytically inactive RRSP H4030A fused to DTB) (from UniProt P00588 186-535) (enzyme)
dose needed for depletion of RAS in HCT-116 spheroids relative to RRSP-DTB: 10 fold
